{"source": "patent US5981720A", "about": "“Human salivary proteins and fragments thereof having alpha-glucosidase inhibitory activity” (priority 1997, dated 1999)", "target": "yeast alpha-glucosidase (Saccharomyces cerevisiae, UniProt P53341)", "sequence (P53341 whole entry)": "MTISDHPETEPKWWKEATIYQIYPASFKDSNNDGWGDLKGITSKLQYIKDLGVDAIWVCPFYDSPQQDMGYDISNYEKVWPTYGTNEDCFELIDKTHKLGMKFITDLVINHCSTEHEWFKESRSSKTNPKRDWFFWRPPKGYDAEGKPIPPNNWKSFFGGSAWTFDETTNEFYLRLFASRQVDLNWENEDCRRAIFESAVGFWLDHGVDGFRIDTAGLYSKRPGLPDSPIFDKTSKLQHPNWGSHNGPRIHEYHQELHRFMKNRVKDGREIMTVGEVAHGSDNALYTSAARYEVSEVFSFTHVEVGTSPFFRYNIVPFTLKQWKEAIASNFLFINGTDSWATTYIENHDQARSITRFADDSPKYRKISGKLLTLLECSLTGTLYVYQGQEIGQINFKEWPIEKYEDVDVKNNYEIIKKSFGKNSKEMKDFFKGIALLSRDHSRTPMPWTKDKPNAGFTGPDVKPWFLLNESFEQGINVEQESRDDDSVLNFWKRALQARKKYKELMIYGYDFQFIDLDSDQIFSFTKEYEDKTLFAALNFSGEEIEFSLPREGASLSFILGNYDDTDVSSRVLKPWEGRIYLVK", "assay_type": "biochemical", "method": "The enzyme of alpha-glucosidase activity is according to the procedure as described by Sigma Chemical Company, St. Louis, Mo. Routinely, the enzyme reaction mixture contains 10 mM maltose and 50 ul of purified alpha-glucosidase or 0.02 units of yeast alpha-glucosidase in a final volume of 60 ul of 25 mM sodium acetate buffer, pH 5.6. The reaction mixture is incubated at 37° C. for 60 minutes, and the production of glucose is determined by the glucose oxidase reagent (Worthington Statzyme Glucose 500) in accordance with recommendation of Worthington Biochemical Corporation.", "note": "Residues, ends and D or L forms follow the SMILES beside them. No end group written: not given here. *: point of attachment. NH(β-GlcNAc) = CC(=O)N[C@@H]1[C@@H](O)[C@H](O)[C@@H](CO)O[C@H]1N*; acetylglucosamine = N-acetylglucosamine", "data": [{"molecule": "glycopeptide: bioactive fragment from Lys-C digestion of CON-1: glycine-glycine-asparagine-lysine, asparagine glycosylated by acetylglucosamine (GGN(acetylglucosamine)K)", "values": [{"measurement": "inhibition of alpha-glucosidase lost after N-acetylglucosaminidase treatment", "setting": "compared to the nontreated glycopeptide", "value": "about 20%"}, {"measurement": "change of inhibitory activity after removal of acetylglucosamine (in words)", "setting": "incubation with N-acetylglucosaminidase", "value": "marked reduction in inhibitory activity"}]}, {"molecule": "acetoacetate glycopeptide complex: reaction product of the putative glycopeptide with acetoacetate reagent (GGN(acetylglucosamine)K; also: reacted with acetoacetate reagent (glycine residue))", "values": [{"measurement": "inhibitory effect on alpha-glucosidase activity (in words)", "setting": "0.02 units of yeast alpha-glucosidase", "value": "loss of inhibitory effect of the glycopeptide itself but is able to stimulate the alpha-glucosidase activity"}]}, {"molecule": "CC(=O)N[C@@H]1[C@@H](O)[C@H](O)[C@@H](CO)O[C@H]1NC(=O)C[C@H](NC(=O)CNC(=O)CN)C(=O)N[C@@H](CCCCN)C(=O)O", "note": "[synthetic glycopeptide, Gylcyl-glycl-(NB-2-(acetylamino)-deoxy-2-B-pyranosyl)-asparaginyl-lysine] (H-GGD(NH(β-GlcNAc))K-OH)", "values": [{"measurement": "inhibitory effect on the alpha-glucosidase activity", "setting": "10 ug of peptide, 50 mM acetate buffer pH 5.6, compared to control", "value": "about 90%"}]}, {"molecule": "glycine-glycine-asparagine-pyridoxyl-lysine acetylglucosamine", "values": [{"measurement": "increase in inhibitory effect on alpha-glucosidase", "setting": "glycopeptide preincubated with pyridoxal 5-phosphate versus unmodified glycopeptide", "value": 50, "unit": "%"}]}]}
